{
  "source": "paper doi:10.1101/2025.04.04.647053",
  "about": "(bioRxiv, 2025)",
  "proteins": {"B1": {"name": "AND-1 (natural protein, H. sapiens, UniProt O75717 1-1129, looked up)", "chain": "MPATRKPMRYGHTEGHTEVCFDDSGSFIVTCGSDGDVRIWEDLDDDDPKFINVGEKAYSCALKSGKLVTAVSNNTIQVHTFPEGVPDGILTRFTTNANHVVFNGDGTKIAAGSSDFLVKIVDVMDSSQQKTFRGHDAPVLSLSFDPKDIFLASASCDGSVRVWQISDQTCAISWPLLQKCNDVINAKSICRLAWQPKSGKLLAIPVEKSVKLYRRESWSHQFDLSDNFISQTLNIVTWSPCGQYLAAGSINGLIIVWNVETKDCMERVKHEKGYAICGLAWHPTCGRISYTDAEGNLGLLENVCDPSGKTSSSKVSSRVEKDYNDLFDGDDMSNAGDFLNDNAVEIPSFSKGIINDDEDDEDLMMASGRPRQRSHILEDDENSVDISMLKTGSSLLKEEEEDGQEGSIHNLPLVTSQRPFYDGPMPTPRQKPFQSGSTPLHLTHRFMVWNSIGIIRCYNDEQDNAIDVEFHDTSIHHATHLSNTLNYTIADLSHEAILLACESTDELASKLHCLHFSSWDSSKEWIIDLPQNEDIEAICLGQGWAAAATSALLLRLFTIGGVQKEVFSLAGPVVSMAGHGEQLFIVYHRGTGFDGDQCLGVQLLELGKKKKQILHGDPLPLTRKSYLAWIGFSAEGTPCYVDSEGIVRMLNRGLGNTWTPICNTREHCKGKSDHYWVVGIHENPQQLRCIPCKGSRFPPTLPRPAVAILSFKLPYCQIATEKGQMEEQFWRSVIFHNHLDYLAKNGYEYEESTKNQATKEQQELLMKMLALSCKLEREFRCVELADLMTQNAVNLAIKYASRSRKLILAQKLSELAVEKAAELTATQVEEEEEEEDFRKKLNAGYSNTATEWSQPRFRNQVEEDAEDSGEADDEEKPEIHKPGQNSFSKSTNSSDVSAKSGAVTFSSQGRVNPFKVSASSKEPAMSMNSARSTNILDNMGKSSKKSTALSRTTNNEKSPIIKPLIPKPKPKQASAASYFQKRNSQTNKTEEVKEENLKNVLSETPAICPPQNTENQRPKTGFQMWLEENRSNILSDNPDFSDEADIIKEGMIRFRVLSTEERKVWANKAKGETASEGTEAKKRKRVVDESDETENQEEKAKENLNLSKKQKPLDFSTNQKLSAFAFKQE"}},
  "target": "the molecule itself",
  "assay": "cryo-EM structure",
  "data": [
    {"protein": "B1", "values": [
      {"measurement": "stoichiometry N", "result": 3}
    ]}
  ]
}
